In the supplement of paper PMC10724198:
± gives the standard deviation of the averaged measurements.

Tested on: Saccharomyces cerevisiae
Assay: protein stability index of tFT-peptide fusion (C-terminal peptide) (PSI (0-1 scale)); higher = more stable (slower turnover)
Settings: temperature: 30 C
Description: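 MPS profiling in S. cerevisiae of the yeast C-terminome library: the last 12 aa of each annotated ORF are fused to the C-terminus of a sfGFP-mCherry timer, after a GGGS linker. Cells are FACS-sorted into 8 mCherry/sfGFP bins and deep-sequenced. PSI runs from 0 (unstable) to 1 (stable); wild type and das1Δ backgrounds, two technical replicates each.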

[1] = genetic background: das1 deletion

Sequence: LLSGEPLAKKKE [HMLALPHA2 C-terminal 12 aa]
- protein stability index [1]: 0.697 ± 0.0074
- protein stability index (genetic background: wild type): 0.744 ± 0.036

Sequence: STIRRLREMVEA [RPL43A C-terminal 12 aa]
- protein stability index [1]: 0.547 ± 0.013
- protein stability index (genetic background: wild type): 0.539 ± 0.028

Sequence: ALNTYSSGFEIA [GID10 C-terminal 12 aa]
- protein stability index [1]: 0.661 ± 0.0013
- protein stability index (genetic background: wild type): 0.676 ± 0.02

Sequence: NDDSKDEDDIIP [MAL33 C-terminal 12 aa]
- protein stability index [1]: 0.6831 ± 0.0019
- protein stability index (genetic background: wild type): 0.731 ± 0.056

Sequence: QIVEEWIVSTEA [CLB4 C-terminal 12 aa]
- protein stability index [1]: 0.623 ± 0.012
- protein stability index (genetic background: wild type): 0.63 ± 0.023

Sequence: AIYPVLSEFRKM [SPT15 C-terminal 12 aa]
- protein stability index [1]: 0.701 ± 0.0082
- protein stability index (genetic background: wild type): 0.706 ± 0.074

Sequence: FIKKWAHYYKKF [SBE22 C-terminal 12 aa]
- protein stability index [1]: 0.711 ± 0.026
- protein stability index (genetic background: wild type): 0.236 ± 0.0037

Sequence: SHMILYQQQECY [YER181C C-terminal 12 aa]
- protein stability index [1]: 0.451 ± 0.0097
- protein stability index (genetic background: wild type): 0.46 ± 0.011

Sequence: VYTSKTRYRFAV [YHR210C C-terminal 12 aa]
- protein stability index [1]: 0.7137 ± 0.0024
- protein stability index (genetic background: wild type): 0.578 ± 0.012

Sequence: SLNLILISMTFI [YCR097W-A C-terminal 12 aa]
- protein stability index [1]: 0.429 ± 0.0075
- protein stability index (genetic background: wild type): 0.449 ± 0.0049

Sequence: LKPWEGRIYISE [IMA1 C-terminal 12 aa]
- protein stability index [1]: 0.714 ± 0.016
- protein stability index (genetic background: wild type): 0.6846 ± 0.0068

Sequence: IIDELEQIALQQ [BRE2 C-terminal 12 aa]
- protein stability index [1]: 0.69735 ± 0.00015
- protein stability index (genetic background: wild type): 0.748 ± 0.04

Sequence: LRRYEEDLFCTF [IES2 C-terminal 12 aa]
- protein stability index [1]: 0.759 ± 0.029
- protein stability index (genetic background: wild type): 0.7425 ± 0.0059

Sequence: NVWDWNNWTSAT [GAL11 C-terminal 12 aa]
- protein stability index [1]: 0.7485 ± 0.006
- protein stability index (genetic background: wild type): 0.767 ± 0.012

Sequence: MMGFSNFATSKK [SNU23 C-terminal 12 aa]
- protein stability index [1]: 0.728 ± 0.011
- protein stability index (genetic background: wild type): 0.683 ± 0.035

Sequence: PTCETTIDIDRI [ZRG17 C-terminal 12 aa]
- protein stability index [1]: 0.687 ± 0.0087
- protein stability index (genetic background: wild type): 0.65 ± 0.0076

Sequence: EEQRNHLKDLYG [SLU7 C-terminal 12 aa]
- protein stability index [1]: 0.6968 ± 0.0037
- protein stability index (genetic background: wild type): 0.702 ± 0.011

Sequence: MASVVKGNATSA [PHO90 C-terminal 12 aa]
- protein stability index [1]: 0.69425 ± 0.00061
- protein stability index (genetic background: wild type): 0.688 ± 0.027

Sequence: LGGLLTVLIWFL [KRE1 C-terminal 12 aa]
- protein stability index [1]: 0.335 ± 0.004
- protein stability index (genetic background: wild type): 0.332 ± 0.014

Sequence: QSVAILDGKLVW [YGL258W-A C-terminal 12 aa]
- protein stability index [1]: 0.677 ± 0.015
- protein stability index (genetic background: wild type): 0.65 ± 0.021

Sequence: ASFENETVKANV [RFC3 C-terminal 12 aa]
- protein stability index [1]: 0.706 ± 0.019
- protein stability index (genetic background: wild type): 0.704 ± 0.0078

Sequence: FTMSLAHCLMFS [YJL169W C-terminal 12 aa]
- protein stability index [1]: 0.636 ± 0.016
- protein stability index (genetic background: wild type): 0.668 ± 0.066

Sequence: TNGNKSCLYWRV [FMP25 C-terminal 12 aa]
- protein stability index [1]: 0.678 ± 0.012
- protein stability index (genetic background: wild type): 0.66 ± 0.044

Sequence: EDVQLALNKHMN [YAP1 C-terminal 12 aa]
- protein stability index [1]: 0.685 ± 0.01
- protein stability index (genetic background: wild type): 0.69 ± 0.0072

Sequence: LTINDLDVTFVI [YCR041W C-terminal 12 aa]
- protein stability index [1]: 0.721 ± 0.022
- protein stability index (genetic background: wild type): 0.71 ± 0.0024

Sequence: STLSRPFTWEEI [ATG34 C-terminal 12 aa]
- protein stability index [1]: 0.715 ± 0.031
- protein stability index (genetic background: wild type): 0.75193 ± 0.00031

Sequence: EGFIAKVMCCLD [RFC5 C-terminal 12 aa]
- protein stability index [1]: 0.606 ± 0.0065
- protein stability index (genetic background: wild type): 0.599 ± 0.021

Sequence: QFLFTGRQKNYV [ERP2 C-terminal 12 aa]
- protein stability index [1]: 0.718 ± 0.017
- protein stability index (genetic background: wild type): 0.718 ± 0.024

Sequence: VSSLRKHGEHYS [TRM82 C-terminal 12 aa]
- protein stability index [1]: 0.704 ± 0.021
- protein stability index (genetic background: wild type): 0.6079 ± 0.0053

Sequence: ENAEKQRTLKKN [RIA1 C-terminal 12 aa]
- protein stability index [1]: 0.6927 ± 0.00075
- protein stability index (genetic background: wild type): 0.71 ± 0.045

Sequence: TLEDLGAKVSLE [MNP1 C-terminal 12 aa]
- protein stability index [1]: 0.696 ± 0.011
- protein stability index (genetic background: wild type): 0.711 ± 0.031

Sequence: KFKIQNILNSTF [SIP4 C-terminal 12 aa]
- protein stability index [1]: 0.714 ± 0.011
- protein stability index (genetic background: wild type): 0.711 ± 0.0095

Sequence: KLDVDDEENEGF [MRD1 C-terminal 12 aa]
- protein stability index [1]: 0.684 ± 0.029
- protein stability index (genetic background: wild type): 0.653 ± 0.011

Sequence: ALCICCTMDMLF [YBR016W C-terminal 12 aa]
- protein stability index [1]: 0.6355 ± 0.0054
- protein stability index (genetic background: wild type): 0.645 ± 0.048

Sequence: MDSRVAHGNILI [SRB5 C-terminal 12 aa]
- protein stability index [1]: 0.70004 ± 0.00046
- protein stability index (genetic background: wild type): 0.688 ± 0.092

Sequence: IVTKMDLLSYLA [CYS4 C-terminal 12 aa]
- protein stability index [1]: 0.674 ± 0.013
- protein stability index (genetic background: wild type): 0.478 ± 0.0082

Sequence: LKTIAAVFSVRV [YJR114W C-terminal 12 aa]
- protein stability index [1]: 0.612 ± 0.0077
- protein stability index (genetic background: wild type): 0.629 ± 0.022

Sequence: LDQFEINSDGEE [NCS2 C-terminal 12 aa]
- protein stability index [1]: 0.691 ± 0.022
- protein stability index (genetic background: wild type): 0.709 ± 0.012

Sequence: YSELCIIVGTYY [YDR003W-A C-terminal 12 aa]
- protein stability index [1]: 0.431 ± 0.012
- protein stability index (genetic background: wild type): 0.439 ± 0.036

Sequence: SFSDLTLHAIEY [BER1 C-terminal 12 aa]
- protein stability index [1]: 0.724 ± 0.031
- protein stability index (genetic background: wild type): 0.69 ± 0.019

Sequence: DIEINDDLNGVL [VPS41 C-terminal 12 aa]
- protein stability index [1]: 0.653 ± 0.016
- protein stability index (genetic background: wild type): 0.708 ± 0.053
